Assay results as given in patent US20250026792A1, “SELF-ASSEMBLING PEPTIDES WITH HYALURONIC ACID BINDING DOMAINS AND METHODS OF USE THEREOF” (Northwestern University, priority 2022, published 2025).
“Also recorded” adds a separate entry of the source.

Assays:
[1] = ECM specificity binding test, hyaluronic acid coating; conditions: 5.0 mg/ml peptide, FIG. 4
Description: (§1) Peptides were incubated 24 hours at 37° C. on collagens I-IV, elastin, hyaluronic acid, and Geltrex. Coatings (10 pig/cm^2) were previously dried overnight in milli-Q water. Overall significance was assessed using analysis of variance, with Tukey's multiple comparison post-hoc analysis between ECM groups where n=4.
(§2) Hyaluronic acid, collagens I, II, III, and IV, elastin, and Geltrex were coated onto 96-well black plates (medium binding affinity) at 10 μg/cm^2 and were dried in milli-Q water at room temperature. N-termini biotinylated peptides were added to coated plates at 0, 1, 2.5, 5 and 10 mg/ml overnight at 37° C. in phosphate buffered saline (PBS), pH 7.4, after which the plates were washed three times with PBS. Fluorescent streptavidin-488 (4 μg/mL) was added to each well and incubated at 37° C. temperature for 24 hours, then thoroughly washed with PBS. The plates were read with a fluorescence microplate reader for fluorescence intensity (Ex 490 nm, Em 525 nm). All data were normalized to the background fluorescence intensity of Streptavidin-488.

[2] = Transmission electron microscopy (TEM) of peptide nanostructures; assay type: physicochemical; conditions: for TEM characterization, Phosphate Buffered Saline (i): PBS pH 7.4, 0.5% w/v, 30 minutes sonication, 24 hrs at 37° C.; for nanofiber formation in TEM, overall: both PBS and sodium cacodylate
Description: The sample and stain were filter-dried in between steps. Samples were collected 24 hours at 37° C. after 30 minutes of sonication. All TEM was performed on a Philips FEI Technai Spirit G2 electron microscope. Peptides were incubated in both PBS and SC.

[3] = Circular dichroism (CD) of peptides; assay type: physicochemical; conditions: 20 mM Sodium Cacodylate; for Ellipticity ratio (222 nm/208 nm) / Ellipticity 208 nm / Ellipticity 222 nm: 1.25 mg/mL; for Ellipticity 208 nm / Ellipticity 222 nm: CD data given as [θ]M×10^−3; for wavelength Minimum of CD profile: 5.0 mg/mL
Description: Data is presented in ellipticity ([θ]M×10^−3) as a function of spectral wavelength (λ).
Sodium cacodylate (SC), 20 mM pH 7.4, without and with 20% TFE was used to reduce phosphate related background signal and enhance detected structures. Circular dichroism (CD) data were collected in millidegrees, 0, and converted to molar ellipticity, [θ]M, and are expressed in units of deg×cm^2×dmol^−1. Scan speeds and digital integration times were 500 nm/min and 1 second, respectively. The data on the Y axis of the CD plots is [θ]M×10^−3. […] Consequently, CD signals are reported in the 190-260 nm range.

[4] = 1H NMR of supernatant of peptide-hyaluronic acid mixtures (loss of HA and peptide from solution); assay type: binding; conditions: 5 mg/mL HA
Description: FIGS. 7A-7C show Nuclear magnetic resonant (NMR) proton spectra of representative (i) hyaluronic acid peaks and (ii) biotinyl peptide peaks and for (FIG. 7A) mPEP35, (FIG. 7B) 1-scrm, and (FIG. 7C) 17x-3 in 25 mM sodium acetate buffer at pH 5.2. Samples represent supernatant (soluble component) of mixtures with 5 mg/mL HA in variable peptide mixture of 1.25, 2.5. and 5 mg/mL.
Peptides and HA were suspended in 25 mM sodium acetate buffer (pH 5.2), made up from 19 mM sodium acetate-d3, 6 mM acetic acid-d4, 10% D2O, and 1 mg/ml DSS-D6. All samples were centrifuged at 21,000 G to remove precipitate and the supernatant was collected for analysis, as only the liquid suspension could be used. NMR spectra were collected on an Avance NEO 600 MHz spectrometer at 298K with excitation sculpting used to suppress the water signal. Number of scans and receiver gain were identical for all NMR spectra.
As higher peptide binding was accompanied by apparent gel-like structure on the substrate, the binding event may be characterized by the change in concentration of either peptide or HA remaining in the solution. ^1H NMR is an ideal method for measuring changes in concentration in solution. It provides atom-specific information that can be used to distinguish signals of biotinylated peptides (6.4 ppm) from those of hyaluronic acid (3.5 ppm) as presented in FIG. 7. Sodium acetate (pH 5.2) was chosen as the buffer since it provides better spectral quality of the amide signals than pH 7.4 buffer. Focus was placed on characterizing the binding of mPEP35, 1-scrm, and 17x-3, which reflect a positive control, a negative control, and a potent binder, respectively. Measurements were taken after centrifugation to remove gel that formed when peptide and HA are mixed. It should be noted that only HN peaks of the peptide show slight chemical shift perturbation upon addition of HA.

[5] = Concentration-dependent peptide binding to hyaluronic acid coating (biotin-streptavidin fluorescence); conditions: for binding to hyaluronic acid with increasing concentrations of peptide (fluorescence intensity): 0-10 mg/ml peptide, PBS pH 7.4, 37° C., HA coating 10 μg/cm^2, FIG. 3; for HA binding, overall assessment: summary and discussion statements
Description: Peptides were incubated 24 hours at 37° C. Coatings (10 μg/cm^2) were previously dried overnight in milli-Q water. Overall significance was assessed using analysis of variance, with Tukey's multiple comparison post-hoc analysis between 1-scrm and experimental groups where n=4.
N-termini biotinylated peptides were added to coated plates at 0, 1, 2.5, 5 and 10 mg/ml overnight at 37° C. in phosphate buffered saline (PBS), pH 7.4, after which the plates were washed three times with PBS.

[6] = tested on: extracellular matrix (ECM) components: Collagen type I, II, III and IV, elastin, hyaluronic acid and Geltrex; assay: ECM specificity binding test, whole panel; conditions: 5.0 mg/ml peptide, FIG. 4
Description: as §1, §2

elastin = biological target: T1, elastin (Bos taurus, UniProt P04985); assay: ECM specificity binding test, elastin coating; parameters: species or system bovine; conditions: 5.0 mg/ml peptide, FIG. 4
T1 construct: purchased Sigma-Aldrich
T1 sequence (P04985 27-747): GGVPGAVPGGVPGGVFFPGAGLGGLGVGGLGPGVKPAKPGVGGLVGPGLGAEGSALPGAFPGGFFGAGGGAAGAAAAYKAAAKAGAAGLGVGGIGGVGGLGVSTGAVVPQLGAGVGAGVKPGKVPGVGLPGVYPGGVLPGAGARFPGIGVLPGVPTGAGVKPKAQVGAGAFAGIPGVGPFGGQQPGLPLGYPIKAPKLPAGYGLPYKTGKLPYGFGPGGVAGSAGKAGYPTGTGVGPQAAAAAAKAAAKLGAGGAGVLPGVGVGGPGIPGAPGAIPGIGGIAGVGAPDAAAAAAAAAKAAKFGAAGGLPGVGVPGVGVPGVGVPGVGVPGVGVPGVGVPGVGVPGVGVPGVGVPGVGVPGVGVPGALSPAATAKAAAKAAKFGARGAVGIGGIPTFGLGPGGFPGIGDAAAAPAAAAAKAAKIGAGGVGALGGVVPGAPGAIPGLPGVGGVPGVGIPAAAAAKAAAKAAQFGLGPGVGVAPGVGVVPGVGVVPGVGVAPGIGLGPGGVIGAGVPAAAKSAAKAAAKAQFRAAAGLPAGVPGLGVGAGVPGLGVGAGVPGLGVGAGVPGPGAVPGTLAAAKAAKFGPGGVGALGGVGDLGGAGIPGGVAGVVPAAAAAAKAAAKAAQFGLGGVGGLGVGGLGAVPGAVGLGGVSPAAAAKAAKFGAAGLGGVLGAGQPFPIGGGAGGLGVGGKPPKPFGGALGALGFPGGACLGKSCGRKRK
Description: as §1
Biotinylated peptides were custom synthesized by ABI Scientific, Inc. (Sterling, VA). Uranyl acetate and TEM grids were from Ted Pella, Inc (Redding, CA). Unless specified otherwise, all water used in these experiments was Milli-Q grade. HA (˜1 MDa), collagen types I (rat), II (chicken), III (human), and IV (mouse), elastin (bovine), deuterium oxide (D2O), acetic acid-d4, sodium acetate-d3, 3-(Trimethylsilyl)propionic-2,2,3,3-d6 (DSS-D6) acid sodium salt, and 2,2,2-trifluoroethanol (TFE) and were obtained from Sigma-Aldrich (St. Louis, MO). Streptavidin (Alexa Fluor 488 conjugate) and Geltrex were obtained from Thermo Fisher Scientific Inc. (Waltham, MA). Sodium hyaluronate (5 and 60 KDa) was purchased from Lifecore Biomedical LLC (Chaska, MN). In reference to terminology, N and C termini is used to describe the amino terminal (N) and the carboxyl terminal (C) of the peptide. The biotinylated peptides are used in every experiment.
as §2

In the case of “KTKATVLIKNKQKSKNALKQKIVLLSK [Peptide 17x-3, de novo designed peptide with five B(X7)B domains]”, the “binding to hyaluronic acid in specificity testing” value [1] is reported as “binds primarily”, the “TEM characterization, Phosphate Buffered Saline (i)” value [2] is reported as “fibers with many striations form larger fibers and the larger fibers tend to form a mesh network” and the “nanofiber formation in TEM, overall” value [2] is reported as “consistent nanofibers; also recorded: predominantly form fibers with striations and furthermore form a mesh network”. The “Ellipticity ratio (222 nm/208 nm)” value [3] was 0.48, the “Ellipticity 208 nm” value [3] was −135 and the “Ellipticity 222 nm” value [3] was −64.4. The “wavelength Minimum of CD profile” value [3] was 223 nm, the “Ellipticity ratio (222 nm/208 nm)” value ([3]; 20% TFE) was 0.72 and the “Ellipticity 208 nm” value ([3]; 20% TFE) was −175. The “Ellipticity 222 nm” value ([3]; 20% TFE) was −126, the “wavelength Minimum of CD profile” value ([3]; 20% TFE) was 221 nm and the HA spectra retained ([4]; 1.25 mg/mL peptide) was about 80%. For the same sequence, the “HA spectra / removal of HA from solution” value ([4]; 2.5 and 5 mg/mL peptide) was “nearly gone; also recorded: almost entirely removed; also recorded: pull all HA out of solution”, the “peptide removed from solution” value ([4]; 2.5 to 5 mg/mL peptide) was about 90% and the “binding to hyaluronic acid with increasing concentrations of peptide (fluorescence intensity)” value [5] was “increases dramatically”. For the same sequence, the “HA binding compared to mPEP35” value ([5]; higher concentrations (5-10 mg/ml)) was “significantly stronger binder”, the “HA binding, overall assessment” value [5] was “proficient and specific binders; also recorded: HA specific and robust binders” and the “binding to the ECMs (for 17x-3: the ECMs other than hyaluronic acid)” value [6] was “does not bind significantly”. For the same sequence, the “specificity of binding to ECMs” value [6] was “high specificity”.

For “LKTKIKIIVKTKSSAKLRSKLVNSHKI [Peptide 4, 8h-2 variant]”, the “binding to hyaluronic acid in specificity testing” value [1] was “predominantly”, the “TEM characterization, Phosphate Buffered Saline (i)” value [2] was “fibers that contain two striations (fibrils)” and the “nanofiber formation in TEM, overall” value [2] was “consistent nanofibers; also recorded: predominantly form fibers with striations and furthermore form a mesh network”. For the same sequence, the binding to elastin (elastin) was “moderately”, the “Ellipticity ratio (222 nm/208 nm)” value [3] was 0.54 and the “Ellipticity 208 nm” value [3] was −112. The “Ellipticity 222 nm” value [3] was −60.3, the “wavelength Minimum of CD profile” value [3] was 225 nm and the “Ellipticity ratio (222 nm/208 nm)” value ([3]; 20% TFE) was 0.97. For the same sequence, the “Ellipticity 208 nm” value ([3]; 20% TFE) was −364, the “Ellipticity 222 nm” value ([3]; 20% TFE) was −353 and the “wavelength Minimum of CD profile” value ([3]; 20% TFE) was 224 nm. For the same sequence, the “binding to hyaluronic acid with increasing concentrations of peptide (fluorescence intensity)” value [5] was “increases dramatically”, the “HA binding, overall assessment” value [5] was “comparable binding; also recorded: HA specific and robust binders” and the “specificity of binding to ECMs” value [6] was “lower specificity than 17x-3”.
